Data published in patent US20090068202A1 (Genentech, published 2009).
No end group written: not given here.

T1: human CD79b on BJAB cells (human, UniProt P40259 29-229)
T1 construct: Endogenous CD79b of BJAB cells; also called PRO36249; endogenous human-CD79b
T1 sequence: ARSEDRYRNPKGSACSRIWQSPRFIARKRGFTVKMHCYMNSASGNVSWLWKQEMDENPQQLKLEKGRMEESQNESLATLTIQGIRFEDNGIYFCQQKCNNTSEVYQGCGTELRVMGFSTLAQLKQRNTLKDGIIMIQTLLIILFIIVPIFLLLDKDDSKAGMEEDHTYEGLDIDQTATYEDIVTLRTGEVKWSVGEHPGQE

T2: 16 amino acid peptide (ARSEDRYRNPKGSACK) containing the epitope for 2F2 (human, also: biotinylated, site not given here)
T2 construct: Synthetic peptide; Captured as biotinylated peptide on a streptavidin sensor chip; also called 16mer peptide; test peptide
T2 peptide: ARSEDRYRNPKGSACK

T3: extracellular domain of human CD79b fused to Fc (huCD79becd-Fc) (human, UniProt P40259 29-159)
T3 construct: Expressed in CHO cells; also called huCD79b-Fc; CD79b-Fc
T3 sequence: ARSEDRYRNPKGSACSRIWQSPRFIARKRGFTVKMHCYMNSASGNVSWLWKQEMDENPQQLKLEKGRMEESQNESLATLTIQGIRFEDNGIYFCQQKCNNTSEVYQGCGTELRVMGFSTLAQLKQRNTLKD

T4: extracellular domain of human CD79b (huCD79becd) (human, UniProt P40259 29-159)
T4 construct: Expressed in CHO cells
T4 sequence: T3 sequence

B1: chimeric 2F2 antibody (ch2F2) IgG1 (antibody, V domains shown)
VH: QVQLQQPGAELVRPGASVKLSCKASGYTFTSYWMNWVKQRPGQGLEWIGMIDPSDSETHYNHIFKDKATLTVDKSSSTAYLQLSSLTSEDSAVYYCARNLYLWGQGTSVTVSL
VL: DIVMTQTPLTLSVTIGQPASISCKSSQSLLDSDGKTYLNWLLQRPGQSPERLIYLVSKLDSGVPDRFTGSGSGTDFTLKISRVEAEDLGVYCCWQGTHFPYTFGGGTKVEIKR
B2: hu 2F2.D7 (Fab column) (Fab, V domains shown)
VH: EVQLVESGGGLVQPGGSLRLSCAASGYTFTSYWMNWVRQAPGKGLEWVGMIDPSDSETHYNHIFKDRFTISADTSKNTAYLQMNSLRAEDTAVYYCARNLYLWGQGTLVTVSS
VL: DIQMTQSPSSLSASVGDRVTITCKSSQSLLDSDGKTYLNWYQQKPGKAPKLLIYLVSKLDSGVPSRFSGSGSGTDFTLTISSLQPEDFATYYCFQGTHFPFTFGQGTKVEIKR
notes: also called 2F2-grafted humanized antibody variant 7 as purified Fab; copies: 1 + 1
B3: 2F2-grafted "humanized" antibody variant 7 (hu2F2.D7), reformatted as IgG (antibody, V domains shown)
VH: B2 VH
VL: B2 VL
notes: also called humanized 2F2.D7

Columns and labels:
[1] = biological target: T1, human CD79b on BJAB cells; assay: Scatchard analysis, I-125 tracer competed by unlabeled IgG on BJAB cells stably expressing cynomolgus CD79b and endogenous human CD79b; ch2F2 IgG; BJAB cells stably expressing cynomolgus CD79b and endogenous human CD79b
Description: (§1) To further determine binding of the IgG variants of the 2F2-graft “humanized” antibody variant 7 (hu2F2.D7) having changes in HVR-L3, binding of iodinated anti-CD79b (with the same epitope as ch2F2) to BJAB cells expressing human CD79b and cynomologous CD79b using competition with unlabeled ch2F2 was analyzed and Scatchard analysis was performed.
(§2) For Scatchard analysis, 0.5 nM I¹²⁵ labeled anti-human CD79b with the same epitope as ch2F2 or 0.5 nM I¹²⁵ labeled 2F2-graft “humanized” antibody variant 7 (hu2F2.D7) was competed against unlabeled ch2F2 or hu2F2.D7, respectively, ranging from 50 to 0.02 nM (12 step 1:2 serial dilution) in the presence of a transfected BJAB line stably expressing cynomologous-CD79b and endogenous human-CD79b. After a four hour incubation at 4° C., cells were washed and cell pellet counts were read by a gamma counter (1470 WIZARD Automatic Gamma Counter; Perkin Elmer, Walthem, Mass.). All points were done in triplicate and counted for 10 minutes. The average CPM was used for Kd calculation using the New Ligand (Genentech, South San Francisco, Calif.) program.

[2] = biological target: T2, 16 amino acid peptide …; assay: Biacore surface plasmon resonance; biotinylated peptide captured on streptavidin chip, IgG injected; the sheet names the antigen '15mer peptide', legend and text name only the 16mer peptide (SEQ ID NO: 78)
Description: (§3) Binding of Fab and IgG variants of ch2F2, the 2F2-grafted “humanized” antibody (hu2F2 graft) or 2F2-grafted “humanized” antibody variant 7 (hu2F2.D7) to immobilized huCD79becd or CD79b-Fc or the 16 amino acid peptide containing the epitope for 2F2 was measured by surface plasma resonance. Affinity determinations were performed by surface plasmon resonance using a BIAcore™-2000. The antigen, huCD79becd or huCD79b-Fc was immobilized (approximately 50-200 RU) in 10 mM sodium acetate pH 4.8 on a CM5 sensor chip. In experiments that measured binding to the 16 amino acid peptide ([…]) (SEQ ID NO: 78) containing the epitope (amino acids 1-11 of SEQ ID NO: 78) for 2F2, the biotinylated peptide was captured (approximately 20 RU) on a streptavidin coated sensor chip. Purified 2F2-grafted “humanized” antibody variant (as Fab or IgG) (a 2-fold serial dilution of 0.5 to 1000 nM in PBST) was injected at a flow rate of 30 μL/min. Each sample was analyzed with 4-minute association and 10-minute disassociation. After each injection the chip was regenerated using 10 mM Glycine pH 1.7.
(§4) Binding response was corrected by subtracting a control flow cell from 2F2-grafted “humanized” antibody variant (as Fab or IgG) flow cells. A 1:1 Languir model of simultaneous fitting of kₒₙ and koff was used for kinetics analysis.

[3] = biological target: T3, extracellular domain of human CD79b …; assay: Biacore surface plasmon resonance; huCD79becd-Fc immobilized on CM5 chip, IgG injected
Description: as §3, §4

[4] = biological target: T4, extracellular domain of human CD79b …; assay: Biacore surface plasmon resonance; huCD79becd immobilized on CM5 chip, IgG injected
Description: as §3, §4

[5] = biological target: T4, extracellular domain of human CD79b …; assay: Biacore surface plasmon resonance; huCD79becd immobilized on CM5 chip, Fab injected
Description: as §3, §4

[6] = biological target: T1, human CD79b on BJAB cells; assay: Scatchard analysis, I-125 hu2F2.D7 competed by unlabeled hu2F2.D7 IgG on BJAB cells stably expressing cynomolgus CD79b and endogenous human CD79b; hu2F2.D7 reformatted as IgG; BJAB cells stably expressing cynomolgus CD79b and endogenous human CD79b
Description: as §1, §2

[7] = biological target: T2, 16 amino acid peptide …; assay: Biacore surface plasmon resonance; biotinylated 16mer peptide captured on streptavidin chip, IgG injected
Description: as §3, §4

| Binder | Kd [1] | Kd [2] | Kd [3] | Kd [4] | Kd [5] | Kd [6] | Kd [7] |
| --- | --- | --- | --- | --- | --- | --- | --- |
| B1 | 0.99 nM | 2 nM | 2.7 nM | 1.4 nM |  |  |  |
| B2 |  |  |  |  | 68 nM |  |  |
| B3 |  |  |  | 3.9 nM |  | 2 nM | 2.7 nM |
